In publication PMC3765158, “Structure Determination and Biochemical Characterization of a Putative HNH Endonuclease from Geobacter metallireducens GS-15” (PLoS ONE, 2013):
One block for each molecule: values may come before it.

Tests used:
[1] = target: non-His-tagged Gme HNHE (Gmet_0936 cleaved off the intein-CBD fusion, with non-native C-terminal residues LEGSS) (Geobacter metallireducens GS-15); experiment: SEC; Superdex 200 5/150 GL; 10 µl of 4 or 8 mg/ml protein injected; Kav against the standards ribonuclease A, ovalbumin and conalbumin
[2] = target: the molecule itself; experiment: SEC-MALS; analytical gel filtration on Shodex 802.5 at 4°C in 100 mM NaCl, 0.025% NaN3, 100 mM Tris-HCl pH 7.5, static light scattering and refractive index detectors; Debye analysis; data not shown

stoichiometry N [1]: 2
Molecule: non-His-tagged Gme HNHE (Gmet_0936 cleaved off the intein-CBD fusion, with non-native C-terminal residues LEGSS) (enzyme)

B1: Gmet_0936 protein (putative HNH endonuclease) from Geobacter metallireducens GS-15, with C-terminal LEH6 (enzyme, UniProt Q39X46 1-104, looked up)
chain: MNYFIVEVSEQEVKREKEKARELRRSQWWKNRIARGICHYCGEIFPPEELTMDHLVPVVRGGKSTRGNVVPACKECNNRKKYLLPVEWEEYLDSLESEPSDGEG
modifications: selenomethionine in place of methionine (selenomethionine-labeled)
notes: Gmet_0936, putative HNH endonuclease of Geobacter metallireducens GS-15; full-length gene in a pET21 derivative (pGmR87-21.1); molecular mass with tag 13.3 kDa; The SEC with static light scattering used a thawed aliquot of the crystallization stock (the same protein as in the crystal); also called Gme HNHE (H6); Gmet_0936 (H6); source: E. coli BL21 (DE3) pMGK, selenomethionine-labeled, purified …
stoichiometry N [2]: 2
